US20220177579A1 (Memorial Sloan Kettering, published 2022)

Molecular target: T1, human CD19 on CD19(+) NALM6 acute lymphoid leukemia cells (human, UniProt P15391 20-556)
T1 sequence: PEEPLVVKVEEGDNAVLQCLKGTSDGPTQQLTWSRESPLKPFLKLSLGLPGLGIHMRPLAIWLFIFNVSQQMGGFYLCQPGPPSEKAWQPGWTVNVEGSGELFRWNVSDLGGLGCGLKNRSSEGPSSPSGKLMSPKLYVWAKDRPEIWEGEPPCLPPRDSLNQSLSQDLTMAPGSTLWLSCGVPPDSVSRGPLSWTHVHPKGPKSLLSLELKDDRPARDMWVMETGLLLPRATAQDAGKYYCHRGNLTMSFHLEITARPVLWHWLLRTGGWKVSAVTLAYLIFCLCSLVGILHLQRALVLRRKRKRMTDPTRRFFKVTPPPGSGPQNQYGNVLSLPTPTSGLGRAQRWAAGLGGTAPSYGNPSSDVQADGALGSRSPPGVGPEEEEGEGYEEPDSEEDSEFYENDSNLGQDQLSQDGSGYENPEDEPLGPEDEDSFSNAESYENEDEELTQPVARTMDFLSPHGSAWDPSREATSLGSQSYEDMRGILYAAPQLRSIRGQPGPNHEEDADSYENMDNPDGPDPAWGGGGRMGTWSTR
Assay: cell-based or functional assay

EC50 for cell lysis of NALM6 cells (standard 4-hour 51Cr release assay with activated T cells): 0.042 pM
B1: CD19-BsAb BC250 (hFMC63 VL-2/VH-1b x CD3 IgG-scFv bispecific antibody) (bispecific antibody)
heavy: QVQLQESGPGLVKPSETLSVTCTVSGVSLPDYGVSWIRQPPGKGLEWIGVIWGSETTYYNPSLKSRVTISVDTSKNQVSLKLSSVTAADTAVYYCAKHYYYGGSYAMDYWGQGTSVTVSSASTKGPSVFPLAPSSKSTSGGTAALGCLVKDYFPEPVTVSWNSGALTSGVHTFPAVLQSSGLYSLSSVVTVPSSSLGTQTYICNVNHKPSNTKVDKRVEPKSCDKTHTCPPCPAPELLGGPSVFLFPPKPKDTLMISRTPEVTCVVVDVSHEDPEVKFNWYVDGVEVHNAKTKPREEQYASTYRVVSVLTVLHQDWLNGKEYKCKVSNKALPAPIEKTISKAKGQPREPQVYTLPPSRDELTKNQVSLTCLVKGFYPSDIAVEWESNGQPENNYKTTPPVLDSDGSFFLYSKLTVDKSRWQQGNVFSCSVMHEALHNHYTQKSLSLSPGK
light: DIQMTQSPSSLSASVGDRVTITCQASQDISKYLNWYQQKPGKAVKLLIYHTSRLHSGVPSRFSGSGSGTDYTLTISSLQPEDIATYFCQQGNTLPYTFGGGTKLEITRTVAAPSVFIFPPSDEQLKSGTASVVCLLNNFYPREAKVQWKVDNALQSGNSQESVTEQDSKDSTYSLSSTLTLSKADYEKHKVYACEVTHQGLSSPVTKSFNRGECTSGGGGSGGGGSGGGGSQVQLVQSGGGVVQPGRSLRLSCKASGYTFTRYTMHWVRQAPGKCLEWIGYINPSRGYTNYNQKFKDRFTISRDNSKNTAFLQMDSLRPEDTGVYFCARYYDDHYSLDYWGQGTPVTVSSGGGGSGGGGSGGGGSGGGGSGGGGSGGGGSDIQMTQSPSSLSASVGDRVTITCSASSSVSYMNWYQQTPGKAPKRWIYDTSKLASGVPSRFSGSGSGTDYTFTISSLQPEDIATYYCQQWSSNPFTFGCGTKLQITR
